For the test, the target named is Recombinant His-tagged CYFIP2-N (aa 1–624) (mouse, UniProt Q5SQX6 1-624). As to the kind of experiment: pull-down.
Sequence of Recombinant His-tagged CYFIP2-N (aa 1–624) (Q5SQX6 1-624): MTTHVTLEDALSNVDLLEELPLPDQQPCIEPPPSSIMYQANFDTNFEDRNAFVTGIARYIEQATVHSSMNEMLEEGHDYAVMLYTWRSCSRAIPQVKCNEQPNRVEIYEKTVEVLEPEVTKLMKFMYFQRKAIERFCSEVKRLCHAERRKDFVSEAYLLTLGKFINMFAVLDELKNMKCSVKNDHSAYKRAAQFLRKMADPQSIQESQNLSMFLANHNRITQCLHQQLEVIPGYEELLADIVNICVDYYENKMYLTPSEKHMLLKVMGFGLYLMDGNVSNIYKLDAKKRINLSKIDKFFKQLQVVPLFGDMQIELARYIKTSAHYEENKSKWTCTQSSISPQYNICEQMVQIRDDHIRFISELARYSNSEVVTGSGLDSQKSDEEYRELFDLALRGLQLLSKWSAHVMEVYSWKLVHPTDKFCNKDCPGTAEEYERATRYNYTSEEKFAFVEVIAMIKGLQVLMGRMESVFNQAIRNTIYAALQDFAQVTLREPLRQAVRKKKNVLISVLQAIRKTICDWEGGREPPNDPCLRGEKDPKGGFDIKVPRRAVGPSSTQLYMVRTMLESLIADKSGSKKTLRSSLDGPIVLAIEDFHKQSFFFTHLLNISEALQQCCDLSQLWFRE

B1: C-terminus of retrolinkin (RTLN-C, aa 489–574) fused to GST (domain or fragment, mouse, UniProt Q8BHE4 489-574, looked up)
chain: CCMRRKKKTANPENNLSYWNNAITMDYFNRHAVELPREIQSLETSEDQLSEPRSPANGDYRDTGMVLVNPFCQETLFVGNDQVSEI
As for B1, the binding result is “binds”.

Source of the values: paper PMC5170866 (Molecular Biology of the Cell, 2016).
